Measured values published in paper PMC3509132, “Global Epigenetic Changes Induced by SWI2/SNF2 Inhibitors Characterize Neomycin-Resistant Mammalian Cells” (PLoS ONE, 2012).

Assays:
Assay in all cases: intrinsic tryptophan fluorescence quenching
MAD28 = target: T1, MAD28 (UniProt Q9TTA5); conditions: Fluorescence at 25 C (Cary-Varian spectrofluorimeter); buffer, salt and pH not given (as in ref 13)
T1 sequence (Q9TTA5 whole entry, looked up): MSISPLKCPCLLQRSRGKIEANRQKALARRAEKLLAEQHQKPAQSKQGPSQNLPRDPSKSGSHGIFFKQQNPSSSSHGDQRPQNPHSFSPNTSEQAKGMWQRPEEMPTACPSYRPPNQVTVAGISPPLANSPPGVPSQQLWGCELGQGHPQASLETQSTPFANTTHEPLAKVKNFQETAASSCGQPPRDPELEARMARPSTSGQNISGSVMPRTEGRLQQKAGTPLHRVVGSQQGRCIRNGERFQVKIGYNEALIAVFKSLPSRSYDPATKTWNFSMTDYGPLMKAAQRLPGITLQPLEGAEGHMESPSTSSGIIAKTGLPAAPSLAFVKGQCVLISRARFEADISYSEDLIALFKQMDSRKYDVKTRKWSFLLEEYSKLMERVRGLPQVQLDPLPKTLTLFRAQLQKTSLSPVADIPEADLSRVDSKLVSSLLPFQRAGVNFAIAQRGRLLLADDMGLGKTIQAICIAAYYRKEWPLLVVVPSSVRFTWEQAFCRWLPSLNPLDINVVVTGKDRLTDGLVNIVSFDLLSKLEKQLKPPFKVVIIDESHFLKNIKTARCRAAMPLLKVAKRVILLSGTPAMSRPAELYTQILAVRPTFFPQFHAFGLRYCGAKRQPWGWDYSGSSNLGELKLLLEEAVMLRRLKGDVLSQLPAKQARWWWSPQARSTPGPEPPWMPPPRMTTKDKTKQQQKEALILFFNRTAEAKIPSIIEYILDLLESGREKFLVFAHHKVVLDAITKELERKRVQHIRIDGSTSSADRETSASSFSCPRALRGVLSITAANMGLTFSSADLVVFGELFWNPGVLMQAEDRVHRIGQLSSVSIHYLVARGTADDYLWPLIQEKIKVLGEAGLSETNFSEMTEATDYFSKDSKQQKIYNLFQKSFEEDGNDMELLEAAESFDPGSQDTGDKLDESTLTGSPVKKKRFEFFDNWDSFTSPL

[1] = target: T2, His-ADAAD (Active DNA-dependent ATPase A Domain) (UniProt Q9TTA5); conditions: Fluorescence at 25 C (Cary-Varian spectrofluorimeter), buffer, salt and pH not given (as in ref 13)
T2 sequence (Q9TTA5 whole entry, looked up): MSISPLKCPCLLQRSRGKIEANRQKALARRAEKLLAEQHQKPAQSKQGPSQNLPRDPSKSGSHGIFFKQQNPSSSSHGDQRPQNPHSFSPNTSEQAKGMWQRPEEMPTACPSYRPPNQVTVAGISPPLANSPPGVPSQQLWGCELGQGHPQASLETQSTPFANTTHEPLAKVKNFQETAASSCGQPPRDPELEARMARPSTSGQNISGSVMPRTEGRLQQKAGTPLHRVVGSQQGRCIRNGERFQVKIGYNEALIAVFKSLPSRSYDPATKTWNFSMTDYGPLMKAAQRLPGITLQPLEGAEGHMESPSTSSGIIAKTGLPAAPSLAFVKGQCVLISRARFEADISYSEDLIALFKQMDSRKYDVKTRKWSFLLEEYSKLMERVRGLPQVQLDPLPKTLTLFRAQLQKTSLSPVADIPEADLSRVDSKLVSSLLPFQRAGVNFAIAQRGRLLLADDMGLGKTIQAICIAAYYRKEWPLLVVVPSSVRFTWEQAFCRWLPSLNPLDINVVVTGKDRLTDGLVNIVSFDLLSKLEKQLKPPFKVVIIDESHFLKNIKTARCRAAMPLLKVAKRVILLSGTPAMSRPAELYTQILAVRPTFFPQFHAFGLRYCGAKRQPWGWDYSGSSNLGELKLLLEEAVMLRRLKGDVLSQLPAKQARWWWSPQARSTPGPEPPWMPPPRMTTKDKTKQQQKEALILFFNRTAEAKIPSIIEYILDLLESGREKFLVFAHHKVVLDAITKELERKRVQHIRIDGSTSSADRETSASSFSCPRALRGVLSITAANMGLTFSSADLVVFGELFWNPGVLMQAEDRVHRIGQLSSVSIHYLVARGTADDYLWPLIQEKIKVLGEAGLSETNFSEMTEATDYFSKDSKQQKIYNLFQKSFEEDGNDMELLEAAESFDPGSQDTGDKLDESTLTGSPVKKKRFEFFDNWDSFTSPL

MAD47 = target: T3, MAD47 (UniProt Q9TTA5); conditions: Fluorescence at 25 C (Cary-Varian spectrofluorimeter); buffer, salt and pH not given (as in ref 13)
T3 sequence (Q9TTA5 whole entry, looked up): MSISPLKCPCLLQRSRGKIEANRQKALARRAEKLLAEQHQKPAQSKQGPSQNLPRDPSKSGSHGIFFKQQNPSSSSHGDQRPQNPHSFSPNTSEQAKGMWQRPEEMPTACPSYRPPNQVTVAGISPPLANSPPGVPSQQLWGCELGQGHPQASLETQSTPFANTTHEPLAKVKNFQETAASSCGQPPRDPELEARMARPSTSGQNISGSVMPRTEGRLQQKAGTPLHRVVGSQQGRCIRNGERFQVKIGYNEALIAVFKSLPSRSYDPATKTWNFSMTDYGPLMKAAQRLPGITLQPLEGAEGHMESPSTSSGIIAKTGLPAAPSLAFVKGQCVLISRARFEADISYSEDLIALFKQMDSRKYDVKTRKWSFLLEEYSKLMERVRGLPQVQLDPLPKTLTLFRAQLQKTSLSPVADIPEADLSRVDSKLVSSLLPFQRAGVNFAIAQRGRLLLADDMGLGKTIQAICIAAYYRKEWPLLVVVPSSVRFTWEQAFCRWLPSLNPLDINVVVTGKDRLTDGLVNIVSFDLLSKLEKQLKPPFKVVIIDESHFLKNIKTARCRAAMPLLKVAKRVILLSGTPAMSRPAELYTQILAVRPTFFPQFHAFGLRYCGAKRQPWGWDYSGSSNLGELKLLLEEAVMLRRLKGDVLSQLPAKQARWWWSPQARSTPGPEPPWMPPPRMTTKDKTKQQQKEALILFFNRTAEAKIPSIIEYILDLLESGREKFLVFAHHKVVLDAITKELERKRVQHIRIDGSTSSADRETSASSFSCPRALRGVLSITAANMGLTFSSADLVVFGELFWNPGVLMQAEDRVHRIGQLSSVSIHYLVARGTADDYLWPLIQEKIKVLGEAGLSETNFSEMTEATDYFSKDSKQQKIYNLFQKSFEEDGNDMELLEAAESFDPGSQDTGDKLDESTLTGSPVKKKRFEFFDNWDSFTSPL

MAD53 = target: T4, MAD53 (UniProt Q9TTA5); conditions: Fluorescence at 25 C (Cary-Varian spectrofluorimeter); buffer, salt and pH not given (as in ref 13)
T4 sequence (Q9TTA5 whole entry, looked up): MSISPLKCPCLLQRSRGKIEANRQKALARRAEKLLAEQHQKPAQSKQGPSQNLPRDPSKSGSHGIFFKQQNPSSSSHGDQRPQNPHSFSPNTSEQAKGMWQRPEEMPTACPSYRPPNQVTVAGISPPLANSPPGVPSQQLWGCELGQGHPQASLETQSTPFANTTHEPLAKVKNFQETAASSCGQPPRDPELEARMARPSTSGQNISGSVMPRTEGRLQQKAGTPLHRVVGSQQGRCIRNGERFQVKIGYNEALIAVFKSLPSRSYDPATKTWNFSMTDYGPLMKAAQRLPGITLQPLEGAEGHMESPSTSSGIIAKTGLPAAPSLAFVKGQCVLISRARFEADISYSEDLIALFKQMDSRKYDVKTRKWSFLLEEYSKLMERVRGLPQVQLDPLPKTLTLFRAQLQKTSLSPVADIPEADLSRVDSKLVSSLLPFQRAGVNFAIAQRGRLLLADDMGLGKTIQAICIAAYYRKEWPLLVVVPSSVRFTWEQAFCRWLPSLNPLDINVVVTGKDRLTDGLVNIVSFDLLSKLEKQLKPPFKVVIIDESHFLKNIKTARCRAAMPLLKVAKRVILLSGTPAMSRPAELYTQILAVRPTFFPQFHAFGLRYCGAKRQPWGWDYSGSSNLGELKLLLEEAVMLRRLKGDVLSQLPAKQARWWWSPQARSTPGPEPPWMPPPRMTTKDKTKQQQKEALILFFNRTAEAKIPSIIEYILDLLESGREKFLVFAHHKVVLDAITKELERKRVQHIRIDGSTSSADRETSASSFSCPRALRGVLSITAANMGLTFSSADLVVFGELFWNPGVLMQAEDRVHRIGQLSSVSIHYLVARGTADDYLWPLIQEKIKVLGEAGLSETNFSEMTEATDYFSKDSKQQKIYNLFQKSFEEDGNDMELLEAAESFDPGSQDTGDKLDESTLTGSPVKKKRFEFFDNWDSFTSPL

MAD33 = target: T5, MAD33 (UniProt Q9TTA5); conditions: Fluorescence at 25 C (Cary-Varian spectrofluorimeter); buffer, salt and pH not given (as in ref 13)
T5 sequence (Q9TTA5 whole entry, looked up): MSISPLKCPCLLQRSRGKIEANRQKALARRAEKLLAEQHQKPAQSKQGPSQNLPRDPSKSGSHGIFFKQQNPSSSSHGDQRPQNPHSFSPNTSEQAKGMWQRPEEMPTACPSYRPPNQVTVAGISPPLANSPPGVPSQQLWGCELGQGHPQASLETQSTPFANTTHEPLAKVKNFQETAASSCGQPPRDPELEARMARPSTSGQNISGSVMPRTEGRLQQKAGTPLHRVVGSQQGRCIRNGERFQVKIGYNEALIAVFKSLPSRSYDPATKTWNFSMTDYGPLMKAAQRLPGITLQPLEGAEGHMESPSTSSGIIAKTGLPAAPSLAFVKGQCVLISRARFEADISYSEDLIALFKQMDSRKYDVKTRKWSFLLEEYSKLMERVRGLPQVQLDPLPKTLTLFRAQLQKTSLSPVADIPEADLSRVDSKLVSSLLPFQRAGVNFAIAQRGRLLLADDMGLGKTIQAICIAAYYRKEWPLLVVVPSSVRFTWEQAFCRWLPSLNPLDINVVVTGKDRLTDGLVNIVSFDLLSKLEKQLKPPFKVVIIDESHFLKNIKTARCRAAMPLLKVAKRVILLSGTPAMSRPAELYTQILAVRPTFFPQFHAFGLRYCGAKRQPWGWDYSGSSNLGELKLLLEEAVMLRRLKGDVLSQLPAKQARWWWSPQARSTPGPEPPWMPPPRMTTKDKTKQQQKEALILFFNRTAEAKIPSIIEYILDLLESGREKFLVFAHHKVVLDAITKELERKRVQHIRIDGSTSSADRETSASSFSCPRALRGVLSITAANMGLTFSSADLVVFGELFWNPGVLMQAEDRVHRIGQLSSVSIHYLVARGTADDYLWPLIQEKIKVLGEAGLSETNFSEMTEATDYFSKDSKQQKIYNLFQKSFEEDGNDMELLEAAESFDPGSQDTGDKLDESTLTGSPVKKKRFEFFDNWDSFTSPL

MAD8 = target: T6, MAD8 (UniProt Q9TTA5); conditions: Fluorescence at 25 C (Cary-Varian spectrofluorimeter); buffer, salt and pH not given (as in ref 13)
T6 sequence (Q9TTA5 whole entry, looked up): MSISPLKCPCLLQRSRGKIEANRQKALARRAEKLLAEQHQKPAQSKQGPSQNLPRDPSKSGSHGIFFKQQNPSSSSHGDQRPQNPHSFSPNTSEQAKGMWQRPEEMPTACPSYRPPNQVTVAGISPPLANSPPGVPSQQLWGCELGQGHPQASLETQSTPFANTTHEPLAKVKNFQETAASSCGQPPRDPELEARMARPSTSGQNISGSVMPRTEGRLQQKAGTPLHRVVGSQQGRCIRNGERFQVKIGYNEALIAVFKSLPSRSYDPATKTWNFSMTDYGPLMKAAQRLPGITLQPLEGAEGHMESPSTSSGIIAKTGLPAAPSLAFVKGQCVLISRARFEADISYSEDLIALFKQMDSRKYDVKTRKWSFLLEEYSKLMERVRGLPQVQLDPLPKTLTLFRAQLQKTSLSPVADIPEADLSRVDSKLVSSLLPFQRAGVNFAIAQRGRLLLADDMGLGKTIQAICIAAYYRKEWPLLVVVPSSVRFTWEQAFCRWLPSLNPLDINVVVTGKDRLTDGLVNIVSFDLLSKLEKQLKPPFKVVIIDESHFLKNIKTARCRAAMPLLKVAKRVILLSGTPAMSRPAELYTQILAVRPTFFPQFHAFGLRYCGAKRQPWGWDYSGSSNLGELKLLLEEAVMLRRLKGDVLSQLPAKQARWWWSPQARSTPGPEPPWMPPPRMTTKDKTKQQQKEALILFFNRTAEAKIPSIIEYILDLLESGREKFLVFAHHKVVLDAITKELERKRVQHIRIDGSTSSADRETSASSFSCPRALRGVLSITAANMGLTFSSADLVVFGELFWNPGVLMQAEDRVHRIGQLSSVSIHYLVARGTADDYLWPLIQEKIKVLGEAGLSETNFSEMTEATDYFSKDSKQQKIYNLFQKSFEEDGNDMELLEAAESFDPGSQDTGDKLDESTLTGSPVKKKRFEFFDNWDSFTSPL

GCGCAATTGCGCTCGACGATTTTTTAGCGCAATTGCGC [slDNA (stem-loop DNA)]
Kd (MAD28): 22.1 nM
Kd ([1]; 2 uM ADAADiK): 0.46 nM
Kd ([1]; 2 uM ADAADiN (saturating inhibitor)): 0.63 nM
Kd (MAD47): 6.5 nM
Kd (MAD53): 8.2 nM
Kd (MAD33): 41.5 nM
Kd (MAD8): 8.7 nM
